Assay results: the supplement of paper PMC9170038

Tested on: MS2 coat protein
Experiment: apparent KD of MS2 coat protein; designed switch direction (-1 OFF switch, 1 ON switch): -1; higher = weaker reporter binding
How it was run: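 Designed RNA switches with common flanks were transcribed on Illumina chips by stalled E. coli RNA polymerase and titrated with SNAP-549-labelled MS2 coat protein, from 0.7 or 1.5 nM doubling to 3 µM, in Tris-HCl pH 7.5 buffer with KCl, MgCl2, BSA, DTT, tRNA and Tween-20. Steps lasted 0.8–1.5 h (lowest) to 10–20 min (highest). Titrations ran without input, with 200 uM small-molecule ligand, or with an oligonucleotide input. Normalised cluster fluorescence was curve-fitted, and apparent KD is the per-design median over clusters.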

[1] = Eterna round: R95, input ligand: FMN 200 uM
[2] = Eterna round: R95, input ligand: microRNA oligo, concentration not stated
[3] = Eterna round: R95, input ligand: none
[4] = input ligand: microRNA oligo, concentration not stated

| Sequence | apparent KD of MS2 coat protein [1] [nM] | apparent KD of MS2 coat protein [2] [nM] | apparent KD of MS2 coat protein [3] [nM] | apparent KD of MS2 coat protein (input ligand: FMN 200 uM) [nM] | apparent KD of MS2 coat protein [4] [nM] | apparent KD of MS2 coat protein (input ligand: none) [nM] |
| --- | --- | --- | --- | --- | --- | --- |
| GGUCUGCGAGGAUAUACAUGAGGAUCACCCAUGUGCGAGAAACUAGUGAGGUCGAUUGGUAGAAGGCGCGGACG [Mat - Exclusion 3 - Mod of JL D83] (puzzle: Exclusion 3) | 74.1 | 113 | 210 |  |  |  |
| AAACUACUUGGGCUGACACAUGAGGAUCACCCAUGUGGAGGGCAGGAUAUGCCCAUAAAAUUGGCGCAGAAGGGCCCACGUAGA [Tegesousbe] (Eterna round: R96, puzzle: Exclusion NG 3) |  |  |  | 17.1 | 6.89 | 13.9 |
| AAACCCUGAGGAUAUACAUAACAACAAAUCCUCACGUGCCAACAUGAGGAUCACCCAUGUAGAAGGCAGGCCAA [Mod R3 Insanara 5 - Jieux - Exclusion 2] (Eterna round: R97, puzzle: Exclusion 2) |  |  |  | 49.2 |  | 15.8 |
| UACCGUGGUUAGGAUAUACCGUGACACCGCUGAGUAGAAGGAACCACAUGAGGAUCACCCAUGUAAUAUGAAGG [Eternabot (L2) Solution 94] (Eterna round: R97, puzzle: Exclusion 6) |  |  |  | 159 |  | 51.9 |
| UUUUCUUUUGUGAGGAUAUACUUCUUUUUUUUUUUGUAGAAGGCACAUGAGGAUCACCCAUGUUUUCUUUUCUG [JR_BME4_Sub027] (puzzle: Brourd's mod of Exclusion 4) |  | 22.1 |  |  |  |  |
| CUUUUGUGAGGAUAUCAGUAGUAAUACAAUAGUAUUACUAUUGAGAAGGCACAUGAGGAUCACCCAUGUUCCUC [Ex4 344 Omei mod 6] (puzzle: Exclusion 4) |  | 38 |  |  |  |  |
| GAAAAGGUAGGAUAUACGAAAAAAAAGGGUAGUAAAAAAACACAUGAGGAUCACCCAUGUAGAAGGACCAAAAG [salish99_ex2_r3_079] (puzzle: Exclusion 2) | 35.7 | 20.9 | 18.6 |  |  |  |
| AAGCCUCAAGUUAGGAUAUUAAUAAGGCAAAUUAUUAAGAAGGGACAUGAGGAUCACCCAUGUAAAAUUCUCAC [Biedredi] (Eterna round: R97, puzzle: Brourd's mod of Exclusion 4) |  |  |  | 140 |  | 57.5 |
| AAGAGGAUCGGAGGAUAUGGAGCUGAAACGGCGCUAGAAGGCCGUCCAGUGUAACAUGAGGAUCACCCAUGUAGGGACCUCUAA [EX ng 1 4.1] (Eterna round: R96, puzzle: Exclusion NG 1) |  |  |  | 314 | 65.5 | 102 |
| AUUAGCGUAGGAUAUUGAAACAUGUACAUGAGGAUCACCCAUGUGAGGUGAGUCUUCGUUUAAGAAGGGCGCAGAA [EX5 #40] (Eterna round: R97, puzzle: Exclusion 5) |  |  |  | 213 |  | 1030 |
| UGACGCACGCGAGGAUAUUCCCACGAAACAAACAACGAAGGGUACAUGAGGAUCACCCAUGUGGCGAAGAAGGCGCGCGUCCGG [Eternabot solution 1] (Eterna round: R96, puzzle: Exclusion NG 2) |  |  |  | 923 | 503 | 1310 |
| CCCAGUUAGUGAGGAUAUCCUACAUGAGGAUCACCCAUGUAAUAAAUGAGGAUUUCGGGUGUCUAGGAGAAGGCACGGAUAGGC [Ostracism 24 - Jieux - Exclusion NG 2] (Eterna round: R96, puzzle: Exclusion NG 2) |  |  |  | 79.3 | 36 | 44.8 |
| CCCGGGCCUGUGAGGAUAUGUUUGGGUAAACCCGGGCAGAAGGCACAUGAGGAUCACCCAUGUAAGGGUUUGGG [-29.6, -27.5 kcal, A 23%, 5bbis-5bbis] (Eterna round: R97, puzzle: Brourd's mod of Exclusion 4) |  |  |  | 22.6 |  | 34.5 |
| CUGAGGUAGCGGUCCUAUGACAUGAGGAUCACCCAUGUACCUUGCUACAAGCUUUUUGCUCGUCUUAUGAUUCUCGG [JL Atriat mod 8] (puzzle: Sensor v3, turn-off variant 1) | 58.1 | 123 | 70.2 |  |  |  |
| GGUUGGCGAGGAUAUACAUGAGGAUCACCCAUGUGAGAGAAACUAGUGAGGUCGAUUGGUAGAAGGCGCUGACG [Mat - Exclusion 3 - Mod of JL D81] (puzzle: Exclusion 3) | 25.3 | 204 | 129 |  |  |  |
| ACAUUACAUGAGGAUCACCCAUGUGAGGAUAUGGAGCGAGACUGUCCUGUCGCGUACACCAGAAGGCGCGGGUG [1st #51] (Eterna round: R97, puzzle: Exclusion 1) |  |  |  | 115 |  | 131 |
| CACCGUUACUGAGGAUAUCGUACAUGAGGAUCACCCAUGUAAUAAAUGAGAAUUUCGGAUGUAUGCGAGAAGGCAGGAAUCGGC [Ostracism 36 - Jieux - Exclusion NG 2] (Eterna round: R96, puzzle: Exclusion NG 2) |  |  |  | 31.6 | 19.5 | 32.2 |

| Sequence | apparent KD of MS2 coat protein [1] [nM] | apparent KD of MS2 coat protein [2] [nM] | apparent KD of MS2 coat protein [3] [nM] | apparent KD of MS2 coat protein (input ligand: FMN 200 uM) [nM] | apparent KD of MS2 coat protein [4] [nM] | apparent KD of MS2 coat protein (input ligand: none) [nM] |
| --- | --- | --- | --- | --- | --- | --- |
| GCGCGCGUUGUGAGGAUAUCGGGCCCGAAAGGGCCCGAGAAGGCACAUGAGGAUCACCCAUGUAAGGUGUGUGU [-35.5, -34.8 kcal, A 23%, 0-6bis] (Eterna round: R97, puzzle: Brourd's mod of Exclusion 4) |  |  |  | 619 |  | 613 |
| AUAUUACGAGGAUAUCGUUUUUAUCACAUGAGGAUCACCCAUGUAAUUUAUGUUUCGUUUCGAGAAGGCGUAAGUU [JR_E5_Sub068] (puzzle: Exclusion 5) |  | 17.8 |  |  |  |  |
| GUUGUUUAUGUAGGAUAUGCCUGGCGUGCCUUUGCAGAAGGACAUGAGGAUCACCCAUGUAUUGCGGUCUGCGUUCAGAUCGCC [salish99_ExNG1_r4_041] (Eterna round: R96, puzzle: Exclusion NG 1) |  |  |  | 33.1 | 19.1 | 25.2 |
| GCAGGUUAAGUCAGGAUAUACCUAUGGAUACAUAGGUAGAAGGGACAUGAGGAUCACCCAUGUGACUCACCUGC [Fiskers BMX 4 - 59] (puzzle: Brourd's mod of Exclusion 4) |  | 25.1 |  |  |  |  |
| UAACUUUUAGUAAGGAUAUCGGUCCCAAGGGACAACGAGAAGGUACAUGAGGAUCACCCAUGUGAAAUAAGAAU [Mod of Zala 3 - Jieux - Brourd's Mod of Exclusion 4] (Eterna round: R97, puzzle: Brourd's mod of Exclusion 4) |  |  |  | 45.4 |  | 21.1 |
| UUUAAUUUUUUUUUUUUACAAGCUUUUUGCUCGUCUUAUACAUGAGGAUCACCCAUGUGAGUGGAAGGUAAAUUAUC [JMF 69] (puzzle: Sensor v3, turn-off variant 2) | 12.6 | 18 | 11.8 |  |  |  |
| UCGUGUAUAGAGGAUAUAUUAUUUUUUUUAACAAUAGAAGGCUAAACAUGAGGAUCACCCAUGUAUUUGGUUUU [JR_Ex6_Sub051] (Eterna round: R97, puzzle: Exclusion 6) |  |  |  | 69.2 |  | 22.9 |
| AGCAGUAGUAUCCGAUCCUACAUGAGGAUCACCCAUGUAGCUAGACGUGCACGCGAUGCUCGUCAGACUACCAGAUG [salish99_TOv1_r3_035] (puzzle: Sensor v3, turn-off variant 1) | 119 | 200 | 195 |  |  |  |
| CGAUGCUCGAAUCCACAUGAGGAUCACCCAUGUCGAGUUAGCGAGGAUAUCGGUGACACAUAGUACGAGAAGGCGCGAACCUGA [Ex NG3 #25] (Eterna round: R96, puzzle: Exclusion NG 3) |  |  |  | 50.9 | 28.3 | 34.8 |
| GCAAGCUUUUUGCGUAGGAACAUGAGGAUCACCCAUGUGCAUGGAAAGAUGGGAAAGAAAGGAGAGAAAGAUGAAAG [Alacar 1] (Eterna round: R97, puzzle: Sensor, turn-off variant 1) |  |  |  | 101 |  | 88.1 |
| UAUAUGUCAGGAUAUCGAUUAGUACGGGAUUCGGUACUGGUUGAGAAGGGACAUGAGGAUCACCCAUGUUUUUC [EX4 #69] (Eterna round: R97, puzzle: Exclusion 4) |  |  |  | 284 |  | 36.5 |
| AAGAUUAUUUCAGGAUAUAGAUUGAUGAUCGUACUAGAAGGGAAAACACAGUACAUGAGGAUCACCCAUGUUCAUGUAGUGCCA [Eternabot solution 29] (Eterna round: R96, puzzle: Exclusion NG 1) |  |  |  | 17.2 | 13.4 | 17.4 |
| CAUGUCUGAGGAUAUCGUUAUUUGUACAUGAGGAUCACCCAUGUCCUAUUUAUUAUAUUUCGAGAAGGCAGUGUAU [JR_E5_Sub093] (puzzle: Exclusion 5) |  | 15.6 |  |  |  |  |
| UUUCAACAUGAGGAUCACCCAUGUCAGGAUAUCAUUUAGCUCAUACACUUACCAUCAUUGAGAAGGGACAUGCU [Colors] (Eterna round: R97, puzzle: Exclusion 1) |  |  |  | 15.7 |  | 19 |
| GUAGGGUCAGGAUAUACGGGCGGAGGGAUGUAUUGUAGUUGGUAGAAGGGACAUGAGGAUCACCCAUGUAAGAA [JR_Exclu4_Sub055] (puzzle: Exclusion 4) |  | 25.3 |  |  |  |  |
| GGUUAGAUGGUAGGAUAUCCAUAUCGAGUGACCCUUUCAUAACAUGAGGAUCACCCAUGUCGGUGGGAGAAGGGCCGUACGGCG [salish99_ExNG02_R04_011] (Eterna round: R96, puzzle: Exclusion NG 2) |  |  |  | 35.5 | 38.3 | 33.2 |
| GGGUAGUGAGGAUAUCGUUGUUAGGAGGAGUAGGUAGGAGGCGAGAAGGCACAUGAGGAUCACCCAUGUAUGGA [JR_Exclu4_Sub067] (puzzle: Exclusion 4) |  | 30.7 |  |  |  |  |
